Measurements from the DeepSol protein solubility set.

Test: soluble on expression in E. coli; label from the status in PepcDB or PDB records

Sequence	soluble on expression in E. coli
DLKILDPIWTTAYITRNHGYMVYDTLFSLDAQGNIQPQMVDTVTTSEDGLMVTMTLRDGLVWHDGAPVTAADCVASINRWGSKDAMGQKMMSFVESLEATDDKTITFKLSTPTGLVTLALAKPSSNVPFMMPERVASTPSSEQIADYTGSGPFVFRQ	not soluble
MQIYLSTLTELDYDKSLNSIEESFDDNPETSWQARAKVKHLRKSPCYNFELEVIAKNENNDVVGHVLLIEVEINSDDKTYYGLAIASLSVHPELRGQKLGRGLVQAVEERAKAQEYSTVVVDHCFDYFEKLGYQNAAEHDIKLEFGDAPLLVKYLWDNLTDAPHGIVKFPEHFY	not soluble
MSEIGTGFPFDPHYVEVLGERMHYVDVGPRDGTPVLFLHGNPTSSYLWRNIIPHVAPSHRCIAPDLIGMGKSDKPDLDYFFDDHVRYLDAFIEALGLEEVVLVIHDWGSALGFHWAKRNPERVKGIACMEFIRPIPTWDEFHHTEVAEEQDHAEAARETFQAFRTADVGRELIIDQNAFIERVLPGGVVRPLTEVEMDHYREPFLKPVDREPLWRFPNELPIAGEPANIVALVEAYMNWLHQSPVPKLLFWGTPGALIPPAEAARLAESLPNCKTVDIGPGLHYLQEDNPDLIGSEIARWLPAL	soluble
MRTVSTVAELRAALPREGVGFVPTMGYLHRGHLALVERARRENPFVVVSVFVNPLQFGPGEDYHRYPRDLERDRALLQEAGVDLLFAPGVEEMYPEGFATRVQVEGPLTALWEGAVRPGHFQGVATVVARLFLLVQPQRAYFGEKDYQQLLVVRRMVRDLGFPVEVVGVPTVREEDGLALSSRNVYLSPETRKKAPVLYRALLAMREVAGQGGSVAEALRAGEEALRAVPEFRKDYLAIVHPETLLPLSDWVAGARGIVAGRFPEARLIDNLEVYP	soluble
AAIGSCSKEYRVLLGQLQKQTDLMQDTSRLLDPYIRIQGLDVPKLREHCRERPGAFPSEETLRGLGRRGFLQTLNATLGCVLHRLADLEQRLPKAQDLERSGLNIEDLEKLQMARPNILGLRNNIYCMAQLLDNSDTAEPTKAGRGASQPPTPTPASDAFQRKLEGCRFLHGYHRFMHSVGRVFSKW	soluble
MQTWQLPEHIADVLPTNARQLESAREQLLALFRVHGYELVQPPLMEYAHSLLTHIDAGLSLKTILVTDRLSGRQLGIRADITPQVARIDAHLLSANQGINRLCYAGPVLHAQPDGLLNMREPLQAGAEMYGFADIRGDIELIDLMLKSMKIADMGKVLLSLGHIGIFRALSDAAHLDAGQSATLLALMQDKDTGAVEAQVKAWKLDGMWAKAFSLLPRLYGGREVLSDARGRLPDLSAVGGALGELQAVCDAFPDCEIHIDLSELRVDNYHTGLLYAAYAADFHDAVARGGRYDGLGGYFGRARPATGFSFDLRSFIGRLPAIERQPAVLVDAEDAEAAHEAVEALREQGQCVVIDYGIGHNVSEELAGRLKKTDGVWQVVKR	not soluble
MAHHHHHHMHDANRFGGRTAYLREIGPIDHKKKGRLFKRDLPTLQFNVDVWCAQQTLRKQWKGRDWDVVEMPFEMAPKELQRVVPEKYTDVPIMTDPARHDYMNIRRKVFDREDMQDALFASGGAGQSPYPAIQRVDKAAMTLDKYL	soluble
KPLQRKLASGMVKKHSIIRALNKVYKRDVYFPGEEELNEVLSDEHKSGANTWEETTELNFEPDMTTVTTEDQSAKPPEQKTPSKDVLDFTQNFLQP	not soluble
MEKLRMNVQGRVQGVGFRYMTKMVADQLGVTGSVRNEDDGSVSITAIAPEDIMETFIKKIKDSPSPAGRVTYVDIQEDPLLEETEQFKVIQ	soluble
MAGAGGQRNSEHVLCDACYFEEFDLVDAPDTIQVRVCSRCGAVHKGNRWVDIGAEDYTDIAVEQVSEALGIHVDAQSVAWQVAPEQLDKNNIRMHAEFSGVIRGTPVTEEVTVPVRISRQTCKRCGKIAGGSFASIVQVRADGRDPTDDERERAEEIAQEYVAAREETGDRNAFITETKSVDDGLDMKISTNQMGLGIAKRITAQLGGSYSDSRRLISEDEDGQELYRMTYAVRLPRYRQGEVIDPEDGDGPVLVRSVQGNLKGVRLATGEDYEASFEAGETPDARRLGFREDGQQTTLVAIEDERAVQVLDPETFESKTVPRPDYLDIDADEVPVLKSHAGLHILPAADADTDELEHHHHHH	not soluble
GPGSMYSKTPCVLGMPYEAAGAVLCNNPYRSQALSWYRKFLKAAFTVPWETDDDALYVMEESRRLFRQNARLTDVEMIQRKLREAEMRYELGVHYRIPYPRPVHKMQGSLQESGVPYAADLDSMYDHPVNPRTGRISEGSANYGVMGGVDNSNELLEGEMGADAEDFSK	soluble
MHHHHHHSSGVDLGTENLYFQSMASESETLNPSARIMTFYPTMEEFRNFSRYIAYIESQGAHRAGLAKVVPPKEWKPRASYDDIDDLVIPAPIQQLVTGQSGLFTQYNIQKKAMTVREFRKIANSDKYCTPRYSEFEELERKYWKNLTFNPPIYGADVNGTLYEKHVDEWNIGRLRTILDLVEKESGITIEGVNTPYLYFGMWKTSFAWHTEDMDLYSINYLHFGEPKSWYSVPPEHGKRLERLAKGFFPGSAQSCEAFLRHKMTLISPLMLKKYGIPFDKVTQEAGEFMITFPYGYHAGFNHGFNCAESTNFATRRWIEYGKQAVLCSCRKDMVKISMDVFVRKFQPERYKLWKAGKDNTVIDHTLPTPEAAEFLKESEL	soluble
MKNERIEKLQESWELDTRWKGITRPYSAEDVIRLRGSIDIEHTLARRGAEKLWASLHTEDYINALGALTGNQAMQQVKAGLKAIYLSGWQVAADANLSGHMYPDQSLYPANSVPAVVKRINQTLQRADQIQHMEGSGDTDYFVPIVADAEAGFGGQLNVFELMKGMIEAGASGVHFEDQLSSEKKCGHLGGKVLLPTQTAVRNLISARLAADVMGVPTIIVARTDADAADLITSDIDPVDKAFITGERTPEGFYRTKAGLDQAIARGLAYAPYADLVWCETSEPNLEDAKRFADAIHKEHPGKLLAYNCSPSFNWKQKLDEKTIASFQKEIASYGYKFQFVTLAGFHSLNYGMFELARGYKERGMAAYSELQQAEFAAEKHGYSATRHQREVGTGYFDEVAQVITGGTSSTTALKGSTEEAQFTK	not soluble
AIATDCEWFDMTWGSSASSGYCSQSDSDEHELELFYTARTSLRKSRKCRDKDEQSEVDWRKQDLSVTEIQQKVKEYNAQVNSNLFMVLNRDGSYTGFIKVQFKLARPVSLPPPRSVSSSSISSSCLGWDGGCQERTSFYLPRDTVKHLHISSSTRAREVIQALLNKFTVVDNPAKYSLYERSQRDNQVYLRKLADDECPLFLRLCAGPNEKVLSLVLKENETGEVNWDAFSFPELQNFLRILQREEEDHVRQIIRRYTLARDKMKEAMKNFSTPG	soluble
GQQKNMENKTLNENIPEMIISLEKEALASTDPMAFVELSDTDVIYFDPSLETKIEGLEQLRTYYKGMQLPPADHFDMIRPVVQVAQNIAVLTFNLDSYLSDKVIKWNCTEVYRRNPDNQWKIIQTHWSYVKPLD	soluble
MGSDKIHHHHHHMTSQKYQSKTLKIAVVGDIHDQWEVEDGMALKHLGVDLVLFVGDFGNESVEVVRAIASLNIPKAAVMGNHDAWYTATEWGRKKCPYDRTKEDWVQEQLDLLGSAHVGYGKLDFPEWNLTVVGGRPFSWGGHEWRFADICKDRYGVTTLEESAQRIFASVKSAACETIIFLGHNGPSGLGDRPEDPCGKDWHPIGGDFGDPDLAEAISLTMTTGKQIALVTFGHMHHSLRHTKKELRKPIFKSPEGIVYLNAASVPRIVEGESGKLRNFSLVSLEAGEVTQASLIWVGEDFQVAKEEIFYERSTSVVPSV	not soluble
GPLGSAGKSSLFKIILLGDGGVGKSSLMNRYVTNKFDSQLFHTIGVEFLNKDLEVDGHFVTMQIWDTAGQERFRSLRTPFYRGSDCCLLTFSVDDSQSFQNLSNWKKEFIYYADVKEPESFPFVILGNKTDIKERQVSTEEAQAWCKDNGDYPYFETSAKDSTNVAAAFEEAVRRILAT	soluble
MNPSLENLQLYPFQKLTKLFEDLVPRDSLPTPIGLHIGEPRHSTPEFIRQELINSLEGLAHYPTVLGTDRLRASIATWLTQRYHLSSIDPDTEVIPVNGSREALFSFAQAVIDTDHKAIQPAVVCQNPFYQIYEGAALLAGATPYFLNQLPENNFSADTAQLPDTVWERTQLVYICSPNNPTGKVLTLDEWKHLFDLSDRYGFVIAADECYSEIYFDEGHPPLGALEAAEKLGRSGFPRLVVFSSLSKRSNVPGMRSGFVAGDATILRKFLLYRTYHGSAMNPAVQAASTVAWSDEQHVAENRKLYYEKFTGAMHILGDTLPVSMPDAGFYLWLRTPVSGIEFSRRLYREGNVTVLPGSYLAREAHGMDPGEDFVRIALVAPVVECMEAMERIRDIARKF	not soluble
MNDLKSKSNIKLMKRVLTTYELRKYLKKYFCLTLDNYLVLAYLDVFKNDEGKYFMRDIISYIGIDQSRIVKSVKDLSKKGYLNKCRDPHDSRNVIIVVSVKQHNYIKNLLSEININET	not soluble
CGGCGEDVVGDGAGVVALDRVFHVGCFVCSTCRAQLRGQHFYAVERRAYCEGCYVATLE	soluble
MAAKDRIQAIKQMVANDKKVTVSNLSGIFQVTEETIRRDLEKLEDEGFLTRTYGGAVLNTAVLTENIHFYKRASSFYEEKLLIARKALPFIDNKTTMAADSSSTVMELLKLLQDRSDLTLLTNSAEAIHVLAQSEIKVVSTGGELNKNTLSLQGRITKEIISRYHVDIMVMSCKGLDINSGALDSNEAEAEIKKTMIRQATEVALLVDHSKFDRKAFVQLADFSHINYIITDKSPGAEWIAFCKDNNIQLVWLEHHHHHH	soluble
MGHHHHHHSHMKESAHLAISWLRSNAKKYQLTNAFGSFDLLDNTDIHLHFPAGAVTKDGPSAGVTIVTCLASLFSGRLVRSDVAMTGEITLRGLVLPVGGIKDKVLAAHRAGLKQVIIPRRNEKDLEGIPGNVRQDLSFVTASCLDEVLNAAFDGGFTVKTRPGLLNSKL	not soluble
MGSDKIHHHHHHMAFFGYKDIDKLSGVDLAIYRFIVEHDEQIPYMRVRELARGAHVSNSSVMRFIRKIGYDSFPEFKVSLRSETPIQKPDAPGIQFVQPSAFPADITKIIRLAAQLMVNADNIVFVGIGASAALGEYASRQTSSLGFNSYVVKDPFYPLLPQLRNTSNNVLVAVSVSGQTSELVEMLNDFVNNPEVNIISITSNLESTIARMSRYALTYRATEERIHQYYDLTSQVPCLYIIEALLRELRHQEVVQHRFE	not soluble
SHPNQNDKIVVGLDIGTTKICAIVGRKNEYGKLEILGIGKAVSEGVIRGMVTNINLTVTAIEKAIKEASDQSGIDIGVVNVGIAGQHIKSSVHHHGINRPGGDEEISVDDVNRLTADMYRTVMPFGN	not soluble
MGSDKIHHHHHHMQSIVQTNFTGIDGLIIRNEPRPALTDNGVLIAMETLPVVPSDWHKETDPNATAEQALQLPRVIGIGGVGTVIEVGHNRDQKLLHQRVLVMHPKGSYQEFILNTNSDWLFPLPINVSNAEAATLTAGPGVALALTEFIKQNPSDHLVITGANSVIGLILCQLLGSTYPGLTPIVSPDSQAYFNQSLPGYPVYSIEHLQLFHGRTLIIDIAGSEPLLQQLIAAVPRASIASIALQTSNLNVPFTFVHEDFNHQIYCHLIKTVASHKLWLPIGRIFSFAETKKAQHYAKDHHSRGRVLVNLN	not soluble
